Reference: article doi:10.1101/2022.09.29.510206 (bioRxiv, 2022)

What follows are binders tested against Norrin (Norrie Disease Protein), biotinylated (UniProt Q00604 25-133, biotin (in vivo biotinylation)) (assay: SPR).
Norrin (Norrie Disease Protein), biotinylated, sequence (Q00604 25-133): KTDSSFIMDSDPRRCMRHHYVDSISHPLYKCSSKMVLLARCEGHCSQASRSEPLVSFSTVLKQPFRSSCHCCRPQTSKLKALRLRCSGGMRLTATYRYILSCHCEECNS

fold weaker affinity than Fz4_(CRD-Connector) [fold]	Binder
~55	mouse Fz8_(CRD-Connector), residues 30-170 (domain or fragment, UniProt Q61091 30-170, looked up) AKELACQEITVPLCKGIGYNYTYMPNQFNHDTQDEAGLEVHQFWPLVEIQCSPDLKFFLCSMYTPICLEDYKKPLPPCRSVCERAKAGCAPLMRQYGFAWPDRMRCDRLPEQGNPDTLCMDYNRTDLTTAAPSPPRRLPPP
~53	Fz4_(CRD-Connector) (M105N) mutant (domain or fragment, human, UniProt Q9ULV1 42-179, looked up, M105N is meant to introduce an N-linked glycosylation site) ERRCDPIRISMCQNLGYNVTKMPNLVGHELQTDAELQLTTFTPLIQYGCSSQLQFFLCSVYVPNCTEKINIPIGPCGGMCLSVKRRCEPVLKEFGFAWPESLNCSKFPPQNDHNHMCMEGPGDEEVPLPHKTPIQPGE
~15	chimaera of Fz4CRD+Fz8_(Connector) (domain or fragment, human | mouse, UniProt Q9ULV1 42-151, looked up) ERRCDPIRISMCQNLGYNVTKMPNLVGHELQTDAELQLTTFTPLIQYGCSSQLQFFLCSVYVPMCTEKINIPIGPCGGMCLSVKRRCEPVLKEFGFAWPESLNCSKFPPQGNPDTLCMDYNRTDLTTAAPSPPRRLPPP
